Results from article PMC5508515 (Cell reports, 2016).
Numbering of substitutions follows the chain as printed. Names and notes keep the numbering of the source. Like-named read-outs stand apart in the source and are kept apart here. Each block holds one molecule with its values, some of them ahead of it.

Columns and labels:
[1] = target: IKK1 (1–676) (human) (UniProt O15111); test: SEC
[2] = target: purified human IKK1 used for single-particle cryo-EM (human) (UniProt O15111); test: cryo-EM structure
[3] = target: purified human IKK1 used for single-particle cryo-EM (human) (UniProt O15111); test: cryo-EM structure; remark: listed apart in the source
[4] = target: T1, human IKK1 (residues 10–667; EE) (human), O15111; test: crystal structure; details: remark: other sources report otherwise
T1 chain: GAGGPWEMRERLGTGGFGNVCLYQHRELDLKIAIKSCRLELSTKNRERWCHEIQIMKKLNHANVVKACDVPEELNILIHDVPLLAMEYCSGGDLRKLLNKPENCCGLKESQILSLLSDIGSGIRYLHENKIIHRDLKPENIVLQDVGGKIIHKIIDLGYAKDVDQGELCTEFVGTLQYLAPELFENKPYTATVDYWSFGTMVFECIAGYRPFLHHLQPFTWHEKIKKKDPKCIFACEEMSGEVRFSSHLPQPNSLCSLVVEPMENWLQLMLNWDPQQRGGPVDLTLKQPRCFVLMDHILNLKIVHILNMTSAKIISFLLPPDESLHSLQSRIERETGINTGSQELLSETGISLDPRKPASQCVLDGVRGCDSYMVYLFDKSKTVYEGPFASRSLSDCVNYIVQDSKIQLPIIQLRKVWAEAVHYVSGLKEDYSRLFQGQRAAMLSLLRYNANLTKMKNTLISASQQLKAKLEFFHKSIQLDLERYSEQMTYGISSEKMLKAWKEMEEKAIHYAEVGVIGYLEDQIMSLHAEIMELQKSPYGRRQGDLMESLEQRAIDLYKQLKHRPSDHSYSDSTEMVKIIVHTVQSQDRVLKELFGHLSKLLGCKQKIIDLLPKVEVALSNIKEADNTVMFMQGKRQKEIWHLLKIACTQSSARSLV

[5] = target: T1, human IKK1 (residues 10–667; EE) …; test: crystal structure; details: remark: other sources report otherwise
[6] = target: the molecule itself; test: SEC
[7] = target: T2, HA-IKK1 WT overexpressed in 293T cells (human), O15111; test: SEC; details: remark: other sources report otherwise
T2 chain: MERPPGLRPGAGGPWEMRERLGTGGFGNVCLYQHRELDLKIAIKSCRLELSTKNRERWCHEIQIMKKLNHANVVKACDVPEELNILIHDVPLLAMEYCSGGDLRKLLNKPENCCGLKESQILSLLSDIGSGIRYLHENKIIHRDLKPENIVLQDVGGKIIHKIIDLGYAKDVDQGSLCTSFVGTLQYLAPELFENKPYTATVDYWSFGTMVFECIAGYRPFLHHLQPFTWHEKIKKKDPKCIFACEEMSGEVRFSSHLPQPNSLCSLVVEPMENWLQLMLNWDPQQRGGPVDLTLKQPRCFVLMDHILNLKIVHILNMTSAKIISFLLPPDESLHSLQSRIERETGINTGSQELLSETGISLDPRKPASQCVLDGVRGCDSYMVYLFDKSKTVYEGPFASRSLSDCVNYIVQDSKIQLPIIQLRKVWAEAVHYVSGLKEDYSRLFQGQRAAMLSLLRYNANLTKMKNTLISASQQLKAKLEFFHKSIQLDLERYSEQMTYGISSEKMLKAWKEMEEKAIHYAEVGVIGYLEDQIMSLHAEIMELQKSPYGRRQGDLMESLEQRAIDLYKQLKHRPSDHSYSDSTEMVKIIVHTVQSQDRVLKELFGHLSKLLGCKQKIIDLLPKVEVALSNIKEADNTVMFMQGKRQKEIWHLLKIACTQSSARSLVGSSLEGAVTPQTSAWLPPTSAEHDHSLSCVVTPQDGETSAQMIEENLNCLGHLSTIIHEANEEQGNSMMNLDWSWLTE

[8] = target: the molecule itself; test: SEC; remark: listed apart in the source

Molecule: IKK1 (1–676) (from UniProt O15111 1-676) (domain or fragment)
- stoichiometry N [1]: 2

B2: IKK2 (1–700) (domain or fragment, UniProt O14920 1-700, looked up)
chain: MSWSPSLTTQTCGAWEMKERLGTGGFGNVIRWHNQETGEQIAIKQCRQELSPRNRERWCLEIQIMRRLTHPNVVAARDVPEGMQNLAPNDLPLLAMEYCQGGDLRKYLNQFENCCGLREGAILTLLSDIASALRYLHENRIIHRDLKPENIVLQQGEQRLIHKIIDLGYAKELDQGSLCTSFVGTLQYLAPELLEQQKYTVTVDYWSFGTLAFECITGFRPFLPNWQPVQWHSKVRQKSEVDIVVSEDLNGTVKFSSSLPYPNNLNSVLAERLEKWLQLMLMWHPRQRGTDPTYGPNGCFKALDDILNLKLVHILNMVTGTIHTYPVTEDESLQSLKARIQQDTGIPEEDQELLQEAGLALIPDKPATQCISDGKLNEGHTLDMDLVFLFDNSKITYETQISPRPQPESVSCILQEPKRNLAFFQLRKVWGQVWHSIQTLKEDCNRLQQGQRAAMMNLLRNNSCLSKMKNSMASMSQQLKAKLDFFKTSIQIDLEKYSEQTEFGITSDKLLLAWREMEQAVELCGRENEVKLLVERMMALQTDIVDLQRSPMGRKQGGTLDDLEEQARELYRRLREKPRDQRTEGDSQEMVRLLLQAIQSFEKKVRVIYTQLSKTVVCKQKALELLPKVEEVVSLMNEDEKTVVRLQEKRQKELWNLLKIACSKVRGPVSGSPDSMNASRLSQPGQLMSQPSTASNSLPE
- stoichiometry N [6]: 2

B3: HA-IKK1 WT overexpressed in 293T cells, O15111 1-745 (enzyme)
chain: T2 chain
- stoichiometry N [7]: 2

B4: HA-IKK1 HY (H578A Y580A) overexpressed in 293T cells (enzyme, human, UniProt O15111 1-745, looked up)
chain: T2 chain with H578A, Y580A
- stoichiometry N [8]: 2

Other lines, results leading:

- stoichiometry N [2]: 2
- percent of particles not conforming to dimers (hexamer) [3]: 2%
- stoichiometry N [3]: 6
Molecule: purified human IKK1 used for single-particle cryo-EM (from UniProt O15111 10-660) (enzyme)

- stoichiometry N [4]: 2
- stoichiometry N [5]: 6
B1: human IKK1 (residues 10–667; EE), O15111 10-667 (domain or fragment)
chain: T1 chain
